From patent publication US20180155451A1 (published 2018)

Tests used:
[1] = target: T1, FcγRIIIa F type extracellular domain with C-terminal His tag (human, UniProt P08637 17-208); experiment: SPR (Biacore), antibody captured on chip, soluble FcgR as analyte; experiment 1
T1 construct: extracellular domain; also called FcgRIIIa F; FcgRIIIaF; not shown: His tag at the C terminus
Description: (§1) Antibodies of interest were analyzed for the interaction to FcgR according to the method described in Reference Example 8.
(§2) Analysis of interaction between obj ective antibody and the FcγR was carried out using Biacore T100 (GE Healthcare), Biacore T200, Biacore A100, and Biacore 4000. HBS-EP+ (GE Healthcare) was used as the running buffer, and the measurement temperature was set to 25° C. Chips produced by immobilizing the antigen peptide by the amine coupling method to a Series S sensor Chip CM5 (GE Healthcare), chips produced by allowing preliminarily biotinylated antigen peptides to interact with and immobilize onto a Series S Sensor Chip SA (certified) (GE Healthcare), chips produced by immobilizing Protein L (ACTIGEN, BioVision) to Series S Sencor Chip CM5 (GE Healthcare), or chips produced by immobilizing Protein A/G (Thermo Scientific) to Series S Sencor Chip CM5 (GE Healthcare) were used. Antibodies of interest were captured onto these chips, and allowed to interact to each FcγR diluted with running buffer. To regenerate and repeatedly use the chip, the antibodies captured onto the chip were washed off by reacting 10 mM glycine-HCl, pH 1.5.

[2] = target: T2, FcγRIa extracellular domain with C-terminal His tag (human, UniProt P12314 16-292); experiment: as above
T2 construct: extracellular domain; also called FcgRI; FcgRIa; not shown: His tag at the C terminus
Description: as §1, §2

[3] = target: T3, FcγRIIb extracellular domain with C-terminal His tag (human, UniProt P31994 43-217); experiment: as above
T3 construct: extracellular domain; also called FcgRIIb; 2b; not shown: His tag at the C terminus
T3 sequence (looked up): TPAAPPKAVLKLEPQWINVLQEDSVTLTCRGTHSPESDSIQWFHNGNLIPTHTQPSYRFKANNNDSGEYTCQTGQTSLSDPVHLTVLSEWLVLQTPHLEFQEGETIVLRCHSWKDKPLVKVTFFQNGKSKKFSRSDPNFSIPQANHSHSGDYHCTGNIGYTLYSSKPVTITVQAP
Description: as §1, §2

[4] = target: T4, FcγRIIa R type extracellular domain with C-terminal His tag (human, UniProt P12318 34-217); experiment: as above
T4 construct: extracellular domain; also called FcgRIIa R; FcgRIIaR; not shown: His tag at the C terminus
T4 sequence (looked up): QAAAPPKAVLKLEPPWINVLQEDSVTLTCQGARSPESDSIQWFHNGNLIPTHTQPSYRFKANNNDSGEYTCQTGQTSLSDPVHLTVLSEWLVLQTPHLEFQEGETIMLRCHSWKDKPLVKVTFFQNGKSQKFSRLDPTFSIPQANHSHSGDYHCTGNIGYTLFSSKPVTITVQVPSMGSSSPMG
Description: as §1, §2

[5] = target: T5, FcγRIIa H type extracellular domain with C-terminal His tag (human, UniProt P12318 34-217); experiment: as above
T5 construct: extracellular domain; also called FcgRIIa H; FcgRIIaH; not shown: His tag at the C terminus
T5 sequence (looked up): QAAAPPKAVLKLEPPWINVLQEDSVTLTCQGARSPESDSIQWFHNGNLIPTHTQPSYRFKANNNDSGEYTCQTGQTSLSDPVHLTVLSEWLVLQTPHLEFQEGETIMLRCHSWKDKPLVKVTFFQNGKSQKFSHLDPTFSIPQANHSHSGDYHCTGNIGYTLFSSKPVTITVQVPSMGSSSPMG
Description: as §1, §2

[6] = target: T6, FcγRIIIa V type extracellular domain with C-terminal His tag (human, UniProt P08637 17-208); experiment: as above
T6 construct: extracellular domain; also called FcgRIIIa V; FcgRIIIaV; not shown: His tag at the C terminus
Description: as §1, §2

[7] = target: T1, FcγRIIIa F type extracellular domain …; experiment: SPR (Biacore), antibody captured on chip, soluble FcgR as analyte; experiment 3
Description: as §1, §2

[8] = target: T2, FcγRIa extracellular domain with …; experiment: as above
Description: as §1, §2

[9] = target: T3, FcγRIIb extracellular domain with …; experiment: as above
Description: as §1, §2

[10] = target: T4, FcγRIIa R type extracellular domain …; experiment: as above
Description: as §1, §2

[11] = target: T5, FcγRIIa H type extracellular domain …; experiment: as above
Description: as §1, §2

[12] = target: T6, FcγRIIIa V type extracellular domain …; experiment: as above
Description: as §1, §2

[13] = target: T1, FcγRIIIa F type extracellular domain …; experiment: SPR (Biacore), antibody captured on chip, soluble FcgR as analyte; experiment 2
[14] = target: T2, FcγRIa extracellular domain with …; experiment: as above
[15] = target: T3, FcγRIIb extracellular domain with …; experiment: as above
[16] = target: T4, FcγRIIa R type extracellular domain …; experiment: as above
[17] = target: T5, FcγRIIa H type extracellular domain …; experiment: as above
[18] = target: T6, FcγRIIIa V type extracellular domain …; experiment: as above
[19] = target: T1, FcγRIIIa F type extracellular domain …; experiment: SPR (Biacore), antibody captured on chip, soluble FcgR as analyte; experiment 1 (second row of this antibody)
Description: as §1, §2

[20] = target: T2, FcγRIa extracellular domain with …; experiment: as above
Description: as §1, §2

[21] = target: T3, FcγRIIb extracellular domain with …; experiment: as above
Description: as §1, §2

[22] = target: T4, FcγRIIa R type extracellular domain …; experiment: as above
Description: as §1, §2

[23] = target: T5, FcγRIIa H type extracellular domain …; experiment: as above
Description: as §1, §2

[24] = target: T6, FcγRIIIa V type extracellular domain …; experiment: as above
Description: as §1, §2

T6 sequence (P08637 17-208 F176V): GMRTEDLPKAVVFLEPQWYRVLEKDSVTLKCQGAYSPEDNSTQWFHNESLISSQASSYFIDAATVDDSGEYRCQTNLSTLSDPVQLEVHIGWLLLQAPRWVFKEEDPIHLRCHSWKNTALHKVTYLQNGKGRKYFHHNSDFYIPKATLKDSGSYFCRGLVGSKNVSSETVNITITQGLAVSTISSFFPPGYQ
T1 sequence (P08637 17-208): as the sequence (P08637 17-208 F176V) above, with V160F counted along it
T2 sequence (P12314 16-292): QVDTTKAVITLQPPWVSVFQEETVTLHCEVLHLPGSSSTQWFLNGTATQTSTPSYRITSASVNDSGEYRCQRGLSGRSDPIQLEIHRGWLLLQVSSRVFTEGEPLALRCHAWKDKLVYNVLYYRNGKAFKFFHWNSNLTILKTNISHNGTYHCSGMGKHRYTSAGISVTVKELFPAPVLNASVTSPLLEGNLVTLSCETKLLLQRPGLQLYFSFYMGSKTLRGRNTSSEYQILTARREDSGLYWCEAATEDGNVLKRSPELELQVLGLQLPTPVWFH

B1: H240-AK072/H240-BH076/L73-k0 (antibody, human IgG1, kappa)
heavy 1: QDQLVQSGAEVKKPGASVKVSCKASGFNIKDTYIQWVRQAPGQGLEWMGRIDPLRKQTKYREKFEGRVTITADTSTNTAYMELSSLRSEDTAVYYCVRSGREFDYWGQGTLVTVSSASTKGPSVFPLAPSSKSTSGGTAALGCLVKDYFPEPVTVSWNSGALTSGVHTFPAVLQSSGLYSLSSVVTVPSSSLGTQTYICNVNHKPSNTKVDKKVEPKSCDKTHTCPPCPAPEYYWGPSVFLFPPKPKDTLMISRTPEVTCVVVDVSDEEPEVKFNWYVDGVEVHNAKTKPREEQYNATYRVVSVLTVLHQDWLNGKEYKCKVSNKALPAPIEKTISKAKGQPREPQVYTLPPSRKEMTKNQVSLTCLVKGFYPSDIAVEWESNGQPENNYKTTPPVLDSDGSFFLYSKLTVDKSRWQQGNVFSCSVMHEALHNRYTQKSLSLSP
heavy 2: QDQLVQSGAEVKKPGASVKVSCKASGFNIKDTYIQWVRQAPGQGLEWMGRIDPLRKQTKYREKFEGRVTITADTSTNTAYMELSSLRSEDTAVYYCVRSGREFDYWGQGTLVTVSSASTKGPSVFPLAPSSKSTSGGTAALGCLVKDYFPEPVTVSWNSGALTSGVHTFPAVLQSSGLYSLSSVVTVPSSSLGTQTYICNVNHKPSNTKVDKKVEPKSCDKTHTCPPCPAPELLGGPSVFLFPPKPKDTLMISRTPEVTCVVVDVSHEEPEVKFNWYVDGVEVHNAKTKPREEQYNSTYRVVSVLTVLHQDWLNGKEYKCKVSNDALPMPIEETISKAKGQPREPQVYTLPPSREEMTKNQVSLTCLVKGFYPSDIAVEWESNGQPENNYKTTPPVLDSDGSFFLYSKLTVDKSRWQQGNVFSCSVMHEALHNHYTQESLSLSP
light: DIQMTQSPSSLSASVGDRVTITCRASQDIHKYIAWYQQKPGQAPRLLIQYTSTLQPGVPSRFSGSGSGTDYTFTISSLQPEDIATYYCLQYEQLRTFGGGTKVEIKRTVAAPSVFIFPPSDEQLKSGTASVVCLLNNFYPREAKVQWKVDNALQSGNSQESVTEQDSKDSTYSLSSTLTLSKADYEKHKVYACEVTHQGLSSPVTKSFNRGEC
notes: Heterodimerized anti-epiregulin (EREG) IgG1 antibody with two different H chains
Kd [1]: 2.9 nM
Kd [2]: 0.11 nM
Kd [3]: 1300 nM
Kd [4]: 240 nM
Kd [5]: 72 nM
Kd [6]: 0.99 nM
Kd [7]: 3.7 nM
Kd [8]: 0.11 nM
Kd [9]: 1400 nM
Kd [10]: 240 nM
Kd [11]: 79 nM
Kd [12]: 1.2 nM
Kd [13]: 3.7 nM
Kd [14]: 0.12 nM
Kd [15]: 1500 nM
Kd [16]: 280 nM
Kd [17]: 69 nM
Kd [18]: 1.2 nM

B2: H240-FA030/H240-FB059/L73-k0 (antibody, human IgG1, kappa)
heavy 1: QDQLVQSGAEVKKPGASVKVSCKASGFNIKDTYIQWVRQAPGQGLEWMGRIDPLRKQTKYREKFEGRVTITADTSTNTAYMELSSLRSEDTAVYYCVRSGREFDYWGQGTLVTVSSASTKGPSVFPLAPSSKSTSGGTAALGCLVKDYFPEPVTVSWNSGALTSGVHTFPAVLQSSGLYSLSSVVTVPSSSLGTKTYTCNVNHKPSNTKVDKKVEPKSCDKTHTCPPCPAPEYYWGPSVFLFPPKPKDTLMISRTPEVTCVVVDVSDEEPKVKFNWYVDGVEVHNAKTKPREEQYNATYRVVSVLTVLHQDWLNGKEYKCKVSNKALPAPIEKTISKAKGQPREPQVYTLPPSRKEMTKNQVSLTCLVKGFYPSDIAVEWESNGQPENNYKTTPPVLDSDGSFFLYSKLTVDKSRWQQGNVFSCSVMHEALHNRYTQKSLSLSP
heavy 2: QDQLVQSGAEVKKPGASVKVSCKASGFNIKDTYIQWVRQAPGQGLEWMGRIDPLRKQTKYREKFEGRVTITADTSTNTAYMELSSLRSEDTAVYYCVRSGREFDYWGQGTLVTVSSASTKGPSVFPLAPSSKSTSGETAALGCLVEDYFPEPVTVSWNSGALTSGVHTFPAVLQSSGLYSLSSVVTVPSSSLGTQTYICNVNHKPSNTKVDKKVEPKSCDKTHTCPPCPAPELLGGPSVFLFPPKPKDTLMISRTPEVTCVVVDVSHEEPEVQFNWYVDGVEVHNAETKPREEQYNSTYRVVSVLTVLHQDWLNGKEYKCKVSNDALPMPIEETISKAKGQPREPQVYTLPPSREEMTKNQVSLTCLVKGFYPSDIAVEWESNGQPENNYKTTPPVLDSDGSFFLYSKLTVDKSRWQQGNVFSCSVMHEALHNHYTQESLSLSP
light: DIQMTQSPSSLSASVGDRVTITCRASQDIHKYIAWYQQKPGQAPRLLIQYTSTLQPGVPSRFSGSGSGTDYTFTISSLQPEDIATYYCLQYEQLRTFGGGTKVEIKRTVAAPSVFIFPPSDEQLKSGTASVVCLLNNFYPREAKVQWKVDNALQSGNSQESVTEQDSKDSTYSLSSTLTLSKADYEKHKVYACEVTHQGLSSPVTKSFNRGEC
notes: Heterodimerized anti-EREG IgG1 antibody; A chain altered from H240-AK072, B chain altered from H240-BH076
Kd [1]: 4.8 nM
Kd [2]: 0.12 nM
Kd [3]: 1500 nM
Kd [4]: 250 nM
Kd [5]: 85 nM
Kd [6]: 1.4 nM
Kd [19]: 3.9 nM
Kd [20]: 0.082 nM
Kd [21]: 1500 nM
Kd [22]: 260 nM
Kd [23]: 85 nM
Kd [24]: 1.2 nM
